Publication PMC3858840 (2013)
No end group written: not given here.

Target: calmodulin (Homo sapiens, UniProt P0DP23)
Test: TMR fluorescence titration

Question: With ARRLKKGKKSKRSMNDPY (also: TMR label, site not given here) [TMR-labeled L-selectin cytoplasmic peptide cytoplasmic domain] as the binder, how does the Kd read?
Answer: ~1000 nM
